# T1: OsBT1-3 (Oryza sativa, UniProt A0A0P0WYD6)
# T1 construct: gene Os06g0602700; E. coli Rosetta(DE3)pLysS, intact cells; antibody peptide VPGTEAESVNEEEVVDGK
# T1 sequence (A0A0P0WYD6 1-423): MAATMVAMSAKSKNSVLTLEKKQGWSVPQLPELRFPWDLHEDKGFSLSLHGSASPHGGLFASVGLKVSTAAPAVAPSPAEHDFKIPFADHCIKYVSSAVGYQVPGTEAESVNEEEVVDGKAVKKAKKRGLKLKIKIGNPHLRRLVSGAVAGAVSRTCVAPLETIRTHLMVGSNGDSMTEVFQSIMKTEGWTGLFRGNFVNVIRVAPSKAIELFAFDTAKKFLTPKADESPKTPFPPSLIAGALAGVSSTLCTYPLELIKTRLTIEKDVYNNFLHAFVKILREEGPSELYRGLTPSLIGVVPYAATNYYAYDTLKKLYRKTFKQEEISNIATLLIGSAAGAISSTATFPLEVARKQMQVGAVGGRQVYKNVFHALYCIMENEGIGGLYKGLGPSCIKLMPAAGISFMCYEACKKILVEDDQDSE
# Assays:
# OsBT1-3 = molecular target: T1, OsBT1-3; assay: inhibition of [α^32P]-ATP uptake into E. coli cells; type: cell-based; conditions: 2000 µM; 2 mM PLP; lysozyme-treated cells; ATP printed as 50 mM (probably μM)
# [1] = substrate: Nc1ncnc2c1ncn2[C@@H]1O[C@H](COP(=O)(O)O)[C@@H](O)[C@H]1O; assay: cells, lysate or membranes; type: cell-based, Oryza sativa; conditions: labelled compound ([^14C]-AMP); 0 to 900 μM; IPTG-induced cells, non-induced background subtracted
# [2] = substrate: Nc1ncnc2c1ncn2[C@@H]1O[C@H](COP(=O)(O)OP(=O)(O)O)[C@@H](O)[C@H]1O; assay: cells, lysate or membranes; type: cell-based, Oryza sativa; conditions: labelled compound ([α^32P]-ADP); 0 to 900 μM; IPTG-induced cells, non-induced background subtracted
# [3] = substrate: Nc1ncnc2c1ncn2[C@@H]1O[C@H](COP(=O)(O)OP(=O)(O)OP(=O)(O)O)[C@@H](O)[C@H]1O; assay: cells, lysate or membranes; type: cell-based, Oryza sativa; conditions: labelled compound ([α^32P]-ATP); 0 to 900 μM; IPTG-induced cells, non-induced background subtracted
Transport Rate (%) (OsBT1-3),Molecule,Km [1],Km [2],Km [3]
27.4 ± 1.9%,Cc1ncc(COP(=O)(O)O)c(C=O)c1O [PLP],–,–,–
–,"OsBT1-3 (Oryza sativa Japonica Group) (protein, E. coli Rosetta(DE3)pLysS, intact cells; antibody peptide VPGTEAESVNEEEVVDGK) MAATMVAMSAKSKNSVLTLEKKQGWSVPQLPELRFPWDLHEDKGFSLSLHGSASPHGGLFASVGLKVSTAAPAVAPSPAEHDFKIPFADHCIKYVSSAVGYQVPGTEAESVNEEEVVDGKAVKKAKKRGLKLKIKIGNPHLRRLVSGAVAGAVSRTCVAPLETIRTHLMVGSNGDSMTEVFQSIMKTEGWTGLFRGNFVNVIRVAPSKAIELFAFDTAKKFLTPKADESPKTPFPPSLIAGALAGVSSTLCTYPLELIKTRLTIEKDVYNNFLHAFVKILREEGPSELYRGLTPSLIGVVPYAATNYYAYDTLKKLYRKTFKQEEISNIATLLIGSAAGAISSTATFPLEVARKQMQVGAVGGRQVYKNVFHALYCIMENEGIGGLYKGLGPSCIKLMPAAGISFMCYEACKKILVEDDQDSE",106.1 ± 3.45 µM,101.7 ± 7.62 µM,83.5 ± 2.74 µM
